This is an account of results in patent US20200055920A1 (published 2020).

Read-outs that look alike come from different tables or passages of the source.

By Kd is commonly meant the free concentration of one partner at which half of the binding sites on the other are occupied at equilibrium, for simple one-to-one binding. High values mean lower affinity, low ones higher affinity. The term koff denotes a measure of how fast the partners let go of each other. A high value points to a short-lived complex. Broadly, the kon is the second-order rate constant of association. The low end stands for slow association, the high end for fast association.

What all share (experiment): Biacore SPR; receptor-Fc captured by anti-Fc antibody, ligand injected
On the technique in general: Surface plasmon resonance follows binding to a sensor surface in real time, without labels.

Assay [1] deals with T1, BMP2 (UniProt P12643 283-396).
For assay [2], the target named is T2, BMP4 (UniProt P12644 293-408).
T2 sequence (looked up): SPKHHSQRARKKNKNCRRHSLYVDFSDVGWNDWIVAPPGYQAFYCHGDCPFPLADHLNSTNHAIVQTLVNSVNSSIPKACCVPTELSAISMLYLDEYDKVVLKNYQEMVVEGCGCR

The target in assay [3] is T3, BMP6 (UniProt P22004 382-513, limits assumed).
T3 sequence (looked up): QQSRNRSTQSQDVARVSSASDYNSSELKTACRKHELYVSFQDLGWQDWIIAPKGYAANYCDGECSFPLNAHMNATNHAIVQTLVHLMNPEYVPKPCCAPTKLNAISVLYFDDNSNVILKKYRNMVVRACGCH

Assay [4] addresses T4, BMP5 (UniProt P22003 317-454, limits assumed).
T4 sequence (looked up): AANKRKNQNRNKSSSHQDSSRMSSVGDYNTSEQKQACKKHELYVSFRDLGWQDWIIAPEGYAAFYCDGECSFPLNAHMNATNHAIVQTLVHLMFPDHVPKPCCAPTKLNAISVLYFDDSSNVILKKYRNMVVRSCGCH

Assay [5] addresses T5, GDF7 (UniProt Q7Z4P5 322-450, limits assumed).
T5 construct: also called BMP12
T5 sequence (looked up): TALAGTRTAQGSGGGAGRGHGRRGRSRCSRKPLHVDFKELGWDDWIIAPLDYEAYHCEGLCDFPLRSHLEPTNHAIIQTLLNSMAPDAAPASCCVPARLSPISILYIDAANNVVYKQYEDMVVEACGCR

Assay [6] deals with T6, BMP7 (UniProt P18075 293-431).
T6 construct: also called osteogenic protein-1; OP-1
T6 sequence (looked up): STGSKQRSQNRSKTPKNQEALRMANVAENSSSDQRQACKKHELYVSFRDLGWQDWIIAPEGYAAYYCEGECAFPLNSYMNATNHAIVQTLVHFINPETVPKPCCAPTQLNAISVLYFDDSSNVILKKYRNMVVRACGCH

The next assay deals with T7, GDF5 (UniProt P43026 382-501, limits assumed).
T7 construct: also called BMP14
T7 sequence (looked up): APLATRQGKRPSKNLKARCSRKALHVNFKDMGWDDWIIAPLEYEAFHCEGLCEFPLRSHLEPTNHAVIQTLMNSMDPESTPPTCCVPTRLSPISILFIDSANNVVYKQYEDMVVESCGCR
As for the experimental part: (§1) Ligands were injected and allowed to flow over the captured receptor protein.

A further assay concerns the target T8, GDF6 (UniProt Q6KF10 336-455, limits assumed).
T8 construct: also called BMP13
T8 sequence (looked up): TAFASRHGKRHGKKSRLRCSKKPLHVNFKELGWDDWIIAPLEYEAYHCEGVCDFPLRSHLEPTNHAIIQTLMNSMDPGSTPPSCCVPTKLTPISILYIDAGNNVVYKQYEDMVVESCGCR
On the procedure:
as §1

The target in a further assay is T9, TGFβ3 (UniProt P10600 301-412).
T9 construct: also called TGF-beta3
T9 sequence (looked up): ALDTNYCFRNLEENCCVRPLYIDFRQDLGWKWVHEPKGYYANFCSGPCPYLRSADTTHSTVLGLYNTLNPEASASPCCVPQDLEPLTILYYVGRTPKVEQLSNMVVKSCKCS
On the procedure: as §1

The next assay has as its target T10, TGFβ2 (UniProt P61812 303-414).
T10 construct: also called TGF-beta2
T10 sequence (looked up): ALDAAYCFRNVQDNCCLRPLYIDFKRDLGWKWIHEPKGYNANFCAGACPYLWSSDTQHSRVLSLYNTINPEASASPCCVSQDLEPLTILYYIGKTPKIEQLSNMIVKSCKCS
On the procedure: as §1

For a further assay, the target named is T11, TGFβ1 (UniProt P01137 279-390).
T11 construct: also called TGF-beta1
On the procedure: as §1

For a further assay, the target named is T12, BMP15 (UniProt O95972 268-392).
T12 construct: also called GDF9b
T12 sequence (looked up): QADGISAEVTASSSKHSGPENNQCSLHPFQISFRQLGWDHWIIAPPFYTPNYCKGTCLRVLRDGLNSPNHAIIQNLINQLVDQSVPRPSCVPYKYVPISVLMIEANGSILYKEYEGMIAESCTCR
On the procedure: (§2) A Biacore™-based binding assay was used to compare ligand binding selectivity of the single-arm BMPRII-Fc heterodimeric complex described above with that of an BMPRII-Fc homodimeric complex. The single-arm BMPRII-Fc and homodimeric BMPRII-Fc were independently captured onto the system using an anti-Fc antibody. Ligands were injected and allowed to flow over the captured receptor protein.

The target of assay [7] is T1, BMP2. On the procedure:
as §2
The source holds these as a separate data set.

In assay [8] the target is T2, BMP4. As for the experimental part: as §2
The source holds these as a separate data set.

Assay [9] deals with T3, BMP6. On the procedure:
as §2
This is another data set of the same source.

Assay [10] has as its target T4, BMP5. As for the experimental part:
as §2
The source holds these as a separate data set.

Another assay deals with T13, BMP10 (UniProt O95393 317-424).
T13 sequence (looked up): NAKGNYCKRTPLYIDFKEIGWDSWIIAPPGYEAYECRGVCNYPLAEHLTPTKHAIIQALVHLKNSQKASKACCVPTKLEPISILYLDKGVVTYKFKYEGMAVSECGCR
On the procedure:
as §2

Assay [11] addresses T5, GDF7. As for the experimental part:
as §2
The source holds these as a separate data set.

The target of assay [12] is T6, BMP7. On the procedure:
as §2
The source holds these as a separate data set.

T11 sequence (P01137 279-390 limits assumed): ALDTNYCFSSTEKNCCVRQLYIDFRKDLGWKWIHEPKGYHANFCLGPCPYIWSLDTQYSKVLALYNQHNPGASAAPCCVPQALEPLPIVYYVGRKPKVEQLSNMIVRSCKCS
T1 sequence (P12643 283-396 limits assumed): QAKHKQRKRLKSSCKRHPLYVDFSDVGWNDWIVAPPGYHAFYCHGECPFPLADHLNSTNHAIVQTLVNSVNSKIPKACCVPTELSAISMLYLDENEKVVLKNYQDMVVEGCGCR

Take ALK3-Fc homodimer (Fc fusion): the Kd with BMP2 [1] came out at 0.13 nM; with BMP4 [2], 0.178 nM; with BMP6 [3], 35 nM; with BMP5 [4], 70 nM; with GDF7 [5], 12 nM; with BMP7 [6], 15 nM. The dissociation constant Kd in the assay with GDF5 was 22 nM; in the assay with GDF6, 40 nM. Also, the koff came out at 8.9e-05 s⁻¹ with BMP2 [1]; 5.3e-05 s⁻¹ in the assay with BMP4 [2]; 0.0049 s⁻¹ in the assay with BMP6 [3]; 0.002 s⁻¹ in the assay with BMP5 [4]; 0.0027 s⁻¹ with GDF7 [5]; 0.018 s⁻¹ with BMP7 [6]. Moreover, the koff with GDF5 was 0.011 s⁻¹; with GDF6, 0.0013 s⁻¹. Besides, the kon was 680000 M⁻¹ s⁻¹ in the assay with BMP2 [1]; 300000 M⁻¹ s⁻¹ with BMP4 [2]; 140000 M⁻¹ s⁻¹ in the assay with BMP6 [3]; 29000 M⁻¹ s⁻¹ in the assay with BMP5 [4]; 220000 M⁻¹ s⁻¹ with GDF7 [5]; 1.2e+06 M⁻¹ s⁻¹ with BMP7 [6]. The results for the kon in the assay with GDF5 and with GDF6 were 480000 M⁻¹ s⁻¹ and 34000 M⁻¹ s⁻¹, respectively.

For the molecule TGFβRII-Fc homodimer (Fc fusion), in the assay with TGFβ3, the dissociation constant Kd was determined as 0.099 nM, the dissociation rate constant (koff) was 0.0059 s⁻¹ and the on-rate constant (kon) was 5.9e+07 M⁻¹ s⁻¹. In addition, the Kd with TGFβ2 is above 44 nM. In the assay with TGFβ1, this molecule returned a Kd of 0.025 nM, a koff of 0.0011 s⁻¹ and a kon of 4.2e+07 M⁻¹ s⁻¹.

B1: single-arm BMPRII-Fc heterodimeric complex (Fc fusion)
chain 1: SQNQERLCAFKDPYQQDLGIGESRISHENGTILCSKGSTCYGLWEKSKGDINLVKQGCWSHIGDPQECHYEECVVTTTPPSIQNGTYRFCCCSTDLCNVNFTENFPPPDTTPLSPPHSFNRDETGGGTHTCPPCPAPELLGGPSVFLFPPKPKDTLMISRTPEVTCVVVDVSHEDPEVKFNWYVDGVEVHNAKTKPREEQYNSTYRVVSVLTVLHQDWLNGKEYKCKVSNKALPAPIEKTISKAKGQPREPQVYTLPPSRKEMTKNQVSLTCLVKGFYPSDIAVEWESNGQPENNYKTTPPVLKSDGSFFLYSKLTVDKSRWQQGNVFSCSVMHEALHNHYTQKSLSLSPGK
chain 2: SNTKVDKRVTGGGTHTCPPCPAPELLGGPSVFLFPPKPKDTLMISRTPEVTCVVVDVSHEDPEVKFNWYVDGVEVHNAKTKPREEQYNSTYRVVSVLTVLHQDWLNGKEYKCKVSNKALPAPIEKTISKAKGQPREPQVYTLPPSREEMTKNQVSLTCLVKGFYPSDIAVEWESNGQPENNYDTTPPVLDSDGSFFLYSDLTVDKSRWQQGNVFSCSVMHEALHNHYTQKSLSLSPGK
notes: also called BMPRII-Fc:Fc heterodimer
With B1, the Kd in the assay with BMP15 is 0.94 nM; with BMP5 [10] it was 36 nM; with BMP10, 0.43 nM; in the assay with GDF7 [11], above 190 nM. For the same molecule, the values for the off-rate constant (koff) with BMP15, with BMP5 [10] and in the assay with BMP10 were 0.067 s⁻¹, 0.015 s⁻¹ and 0.0091 s⁻¹, respectively. Besides, the kon with BMP15 amounted to 7.1e+07 M⁻¹ s⁻¹; with BMP5 [10], 410000 M⁻¹ s⁻¹; with BMP10, 2.1e+07 M⁻¹ s⁻¹. Further, the binding result in the assay with BMP2 [7], with BMP4 [8], with BMP6 [9] and with BMP7 [12] was “no binding” in each case.

B2: single-arm TGFβRII-Fc heterodimeric complex (Fc fusion)
chain 1: TIPPHVQKSVNNDMIVTDNNGAVKFPQLCKFCDVRFSTCDNQKSCMSNCSITSICEKPQEVCVAVWRKNDENITLETVCHDPKLPYHDFILEDAASPKCIMKEKKKPGETFFMCSCSSDECNDNIIFSEEYNTSNPDTGGGTHTCPPCPAPELLGGPSVFLFPPKPKDTLMISRTPEVTCVVVDVSHEDPEVKFNWYVDGVEVHNAKTKPREEQYNSTYRVVSVLTVLHQDWLNGKEYKCKVSNKALPAPIEKTISKAKGQPREPQVYTLPPSRKEMTKNQVSLTCLVKGFYPSDIAVEWESNGQPENNYKTTPPVLKSDGSFFLYSKLTVDKSRWQQGNVFSCSVMHEALHNHYTQKSLSLSPGK
chain 2: SNTKVDKRVTGGGTHTCPPCPAPELLGGPSVFLFPPKPKDTLMISRTPEVTCVVVDVSHEDPEVKFNWYVDGVEVHNAKTKPREEQYNSTYRVVSVLTVLHQDWLNGKEYKCKVSNKALPAPIEKTISKAKGQPREPQVYTLPPSREEMTKNQVSLTCLVKGFYPSDIAVEWESNGQPENNYDTTPPVLDSDGSFFLYSDLTVDKSRWQQGNVFSCSVMHEALHNHYTQKSLSLSPGK
notes: also called TGFβRII-Fc:Fc heterodimer
In the case of B2, the dissociation constant Kd is 0.073 nM with TGFβ3, above 61 nM with TGFβ2 and 0.031 nM with TGFβ1. For the same molecule, the dissociation rate constant (koff) with TGFβ3 was 0.0099 s⁻¹; in the assay with TGFβ1, 0.0047 s⁻¹. Besides, the kon came out at 1.4e+08 M⁻¹ s⁻¹ with TGFβ3 and 1.5e+08 M⁻¹ s⁻¹ in the assay with TGFβ1.
